From patent US20160152703A1 (PERSEUS PROTEOMICS, published 2016)

Legend:
[1] = target: T1, full-length human CDH3 with myc-His tag, forcibly expressed on CHO cells (EXZ1501) (human, UniProt P22223 108-829); test: flow cytometry on CHO cells with forcible expression of CDH3
T1 construct: Clones were selected by Western blotting with an anti-c-Myc antibody; also called CDH3 full-length expression CHO cell line (EXZ1501); CHO cells with forcible expression of CDH3; not shown: C-terminal myc-His tag from vector pEF4/myc-HisB
T1 sequence (P22223 108-829): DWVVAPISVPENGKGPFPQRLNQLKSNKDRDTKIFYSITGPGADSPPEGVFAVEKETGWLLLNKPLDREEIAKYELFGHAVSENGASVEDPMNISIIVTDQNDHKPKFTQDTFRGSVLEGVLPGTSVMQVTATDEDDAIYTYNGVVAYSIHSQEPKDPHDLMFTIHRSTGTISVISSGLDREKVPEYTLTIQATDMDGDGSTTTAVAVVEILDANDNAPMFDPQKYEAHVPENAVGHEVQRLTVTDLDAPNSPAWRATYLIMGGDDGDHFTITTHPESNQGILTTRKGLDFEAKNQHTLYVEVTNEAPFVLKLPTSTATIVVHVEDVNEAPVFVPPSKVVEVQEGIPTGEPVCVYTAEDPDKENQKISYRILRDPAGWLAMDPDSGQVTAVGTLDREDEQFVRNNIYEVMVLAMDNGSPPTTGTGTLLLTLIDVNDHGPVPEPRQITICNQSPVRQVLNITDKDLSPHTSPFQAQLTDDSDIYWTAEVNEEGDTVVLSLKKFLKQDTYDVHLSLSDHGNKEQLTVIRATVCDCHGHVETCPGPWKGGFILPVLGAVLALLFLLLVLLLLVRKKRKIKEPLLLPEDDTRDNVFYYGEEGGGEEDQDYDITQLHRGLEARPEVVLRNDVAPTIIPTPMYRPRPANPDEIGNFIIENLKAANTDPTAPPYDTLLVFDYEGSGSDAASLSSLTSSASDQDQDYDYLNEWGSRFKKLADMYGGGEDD

[2] = target: T2, human CDH3 (P-cadherin), endogenous, on cancer cells (human, UniProt P22223 108-829); test: FACS competition on a CDH3-expressing cell line; competitor: Alexa488-labeled NITE BP-989 antibody
T2 construct: Endogenous CDH3 on NCI-H358 and other human cancer cells or tissues; also called CDH3 on NCI-H358; CDH3-expressing cancer cell line
T2 sequence (P22223 108-829 limits assumed): as the sequence (P22223 108-829) above

[3] = target: T2, human CDH3 (P-cadherin), endogenous, on …; test: FACS competition on NCI-H358; competitor: Alexa488-labeled NITE BP-989 antibody; IC50 relative to the antibody without drug, average DAR 0 to 8
Method: The influence of humanization on affinity was confirmed by carrying out a competition test using a flow cytometer (FACS). A test antibody whose dilution series had been prepared, a cell line that expressed CDH3, and a certain amount of Amaxa488-labeled antibody that was competitive with the test antibody were allowed to coexist, and the reaction was then carried out at room temperature for 1 hour. Thereafter, the reaction product was washed with a FACS solution, and FACS measurement was then carried out. […] The obtained IC50 value was defined as an index for affinity.
The influence of the average drug-to-antibody ratio (DAR) of the drug binding to the humanized antibody of the present invention on affinity was confirmed by the same competition test using FACS as that in Example 25. The antibody drug conjugate was prepared in the range of average DAR of 0 to 8 by the method described in Example 15. The DAR was quantified by the method described in Example 16.
As a cell line, NCI-H358 was used. […] By the same FACS competition test as that described in Example 25, each IC50 value was calculated as an index for affinity.

[4] = target: T2, human CDH3 (P-cadherin), endogenous, on …; test: flow cytometry on NCI-H358 cells, antibody at 10 ug/mL
Method: A cell line that would be used as a reaction target (an NCI-H358 cell line that had been confirmed to express CDH3 at a high level) was treated with 2 mM EDTA-PBS, so that the cells were removed from a culture plate, and the obtained cells were then suspended in a FACS solution to a cell density of 1×10⁶ cells/mL. This cell suspension was seeded on a 96-well plate, resulting in an amount of 50 μL/well, and the purified chimeric antibody was then added to the plate to result in a concentration of 10 μg/mL, followed by performing a reaction at 4° C. for 60 minutes. Thereafter, the reaction mixture was washed with a FACS solution (150 μL/well) two times, and 4 μg/ml AlexaFlour488-labeled anti-human IgG/goat F(ab′)₂ (Invitrogen) was then added to the resultant. The obtained mixture was reacted at 4° C. for 30 minutes. Thereafter, the cells were washed with a FACS solution two times, and was then subjected to flow cytometry.

| Binder | binding result [1] | binding result [2] | binding result [3] | binding result [4] |
| --- | --- | --- | --- | --- |
| PPAT-076-44Hd (antibody, V domains shown, also called anti-CDH3 humanized antibody (human germline framework, reshaped); humanized antibody) VH: QVQLVESGGGVVQPGRSLRLSCAASGFSLTSYGVHWVRQAPGKGLEWVGVIWSGGSTDYADSVKGRFTISKDNSKNTVYLQMNSLRAEDTAVYYCARNSNNGFAYWGQGTLVTVSS VL: DIQLTQSPSSLSASVGDRVTITCRASQNIYSNLAWYQQKPGKAPKLLVYAAKNLASGVPSRFSGSGSGTDFTLTISSLQPEDFATYYCQHFYDTPWTFGQGTKVEIK | binds | binds |  |  |
| PPAT-076-44Hb, to which a drug is bound (DM1 conjugate) (antibody, human IgG1, V domains shown, DM1 bound through Sulfo-SMCC; sites not stated, Human IgG1/kappa; also called CDH3 antibody drug conjugate of PPAT-076-44Hb; humanized antibody drug conjugate) VH: EVQLVESGGGLVQPGGSLRLSCAASGFSLTSYGVHWVRQAPGKGLEWVAVIWSGGSTDYADSVKGRFTISKDNSKNTVYLQMNSLRAEDTAVYYCARNSNNGFAYWGQGTLVTVSS VL: DIQMTQSPSSLSASVGDRVTITCRASQNIYSNLAWYQQKPGKAPKLLVYAAKNLASGVPSRFSGSGSGTDFTLTISSLQPEDFATYYCQHFYDTPWTFGQGTKVEIK |  |  | binds |  |
| PPAT-076-44Hd, to which a drug is bound (DM1 conjugate) (antibody, human IgG1, V domains shown, DM1 bound through Sulfo-SMCC; sites not stated, Human IgG1/kappa; also called CDH3 antibody drug conjugate of PPAT-076-44Hd; drug conjugate of PPAT-076-44Hd) VH: QVQLVESGGGVVQPGRSLRLSCAASGFSLTSYGVHWVRQAPGKGLEWVGVIWSGGSTDYADSVKGRFTISKDNSKNTVYLQMNSLRAEDTAVYYCARNSNNGFAYWGQGTLVTVSS VL: DIQLTQSPSSLSASVGDRVTITCRASQNIYSNLAWYQQKPGKAPKLLVYAAKNLASGVPSRFSGSGSGTDFTLTISSLQPEDFATYYCQHFYDTPWTFGQGTKVEIK |  |  | binds |  |
| PPAT-076-44Hb (antibody, V domains shown, also called anti-CDH3 humanized antibody (human consensus framework, reshaped)) VH: EVQLVESGGGLVQPGGSLRLSCAASGFSLTSYGVHWVRQAPGKGLEWVAVIWSGGSTDYADSVKGRFTISKDNSKNTVYLQMNSLRAEDTAVYYCARNSNNGFAYWGQGTLVTVSS VL: DIQMTQSPSSLSASVGDRVTITCRASQNIYSNLAWYQQKPGKAPKLLVYAAKNLASGVPSRFSGSGSGTDFTLTISSLQPEDFATYYCQHFYDTPWTFGQGTKVEIK | binds |  |  | binds |
